In patent publication US20130336885A1 (Genentech, published 2013):

T1: gD epitope-tagged mouse LgR5 expressed on stably transfected 293 cells (mouse, UniProt Q9Z1P4 22-907)
T1 construct: also called gD-tagged mouse LgR5
T1 sequence: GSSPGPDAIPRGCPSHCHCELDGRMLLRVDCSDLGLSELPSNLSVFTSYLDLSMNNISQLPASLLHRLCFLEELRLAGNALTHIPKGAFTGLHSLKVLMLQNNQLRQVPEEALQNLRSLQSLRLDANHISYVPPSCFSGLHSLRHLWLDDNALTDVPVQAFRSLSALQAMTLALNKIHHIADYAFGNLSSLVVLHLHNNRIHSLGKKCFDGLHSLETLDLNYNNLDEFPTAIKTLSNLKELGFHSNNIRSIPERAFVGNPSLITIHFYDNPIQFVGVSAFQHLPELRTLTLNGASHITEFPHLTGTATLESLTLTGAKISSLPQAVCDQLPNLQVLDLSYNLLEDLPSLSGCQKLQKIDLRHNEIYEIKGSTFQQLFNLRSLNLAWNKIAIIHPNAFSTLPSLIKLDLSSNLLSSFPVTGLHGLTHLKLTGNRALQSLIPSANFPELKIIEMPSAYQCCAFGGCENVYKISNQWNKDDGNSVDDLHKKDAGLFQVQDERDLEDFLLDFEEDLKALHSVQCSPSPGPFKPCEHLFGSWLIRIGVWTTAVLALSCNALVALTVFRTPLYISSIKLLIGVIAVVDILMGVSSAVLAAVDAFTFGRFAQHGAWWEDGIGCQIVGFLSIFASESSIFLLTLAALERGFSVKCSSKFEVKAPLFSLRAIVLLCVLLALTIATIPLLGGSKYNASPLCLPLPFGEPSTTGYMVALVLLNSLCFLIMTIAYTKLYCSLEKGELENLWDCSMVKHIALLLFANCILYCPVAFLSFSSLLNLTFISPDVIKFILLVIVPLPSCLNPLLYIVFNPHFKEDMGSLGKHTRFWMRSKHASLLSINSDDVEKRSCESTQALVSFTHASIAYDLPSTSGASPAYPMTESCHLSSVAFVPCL

T2: gD epitope-tagged rat LgR5 expressed on stably transfected 293 cells (rat, UniProt D4AC13 22-907)
T2 construct: also called gD-tagged rat LgR5
T2 sequence: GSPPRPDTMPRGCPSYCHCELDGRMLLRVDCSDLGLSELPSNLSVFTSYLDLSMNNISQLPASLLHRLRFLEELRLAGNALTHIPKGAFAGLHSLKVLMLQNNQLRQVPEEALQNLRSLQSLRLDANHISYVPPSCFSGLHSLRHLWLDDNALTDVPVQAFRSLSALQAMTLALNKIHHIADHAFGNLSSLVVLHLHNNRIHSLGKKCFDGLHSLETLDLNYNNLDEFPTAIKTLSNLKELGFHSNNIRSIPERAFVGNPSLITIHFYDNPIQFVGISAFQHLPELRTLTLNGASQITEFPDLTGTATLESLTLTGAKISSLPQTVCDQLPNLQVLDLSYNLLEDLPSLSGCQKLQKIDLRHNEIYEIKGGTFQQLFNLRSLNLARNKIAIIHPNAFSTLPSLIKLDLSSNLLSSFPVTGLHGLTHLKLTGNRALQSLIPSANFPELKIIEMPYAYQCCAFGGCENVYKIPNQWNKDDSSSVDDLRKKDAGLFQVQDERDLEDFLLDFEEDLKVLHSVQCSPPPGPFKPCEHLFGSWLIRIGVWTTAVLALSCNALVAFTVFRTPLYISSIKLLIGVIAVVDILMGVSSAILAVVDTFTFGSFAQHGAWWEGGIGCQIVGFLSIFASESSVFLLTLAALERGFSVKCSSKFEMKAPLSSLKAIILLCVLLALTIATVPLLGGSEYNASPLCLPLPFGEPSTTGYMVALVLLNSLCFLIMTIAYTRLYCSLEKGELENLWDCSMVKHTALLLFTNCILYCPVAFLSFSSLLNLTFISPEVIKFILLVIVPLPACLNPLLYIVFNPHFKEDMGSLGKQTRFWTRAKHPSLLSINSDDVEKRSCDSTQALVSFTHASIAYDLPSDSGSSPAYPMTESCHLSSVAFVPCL

B1: humanized monoclonal antibody 8E11.v2 (antibody, human IgG1, kappa, V domains shown)
VH: EVQLVQSGAEVKKPGASVKVSCKASGYTFSAYWIEWVRQAPGQGLEWIGEILPGSDSTDYNEKFKVRATFTSDTSTSTVYLELSSLRSEDTAVYYCARGGHYGSLDYWGQGTLVTVSS
VL: DIVMTQSPDSLAVSLGERATINCRASESVDNYGNSFMHWYQQKPGQPPKLLIYLASNLESGVPDRFSGSGSGTDFTLTISSLQAEDVAVYYCQQNYEDPFTFGQGTKVEIKR
notes: It was assessed as an IgG; also called hu8E11.v2; hu8E11v2
B2: human antibody YW353 (antibody, human IgG1, kappa, V domains shown)
VH: EVQLVESGGGLVQPGGSLRLSCAASGFTFTSYSISWVRQAPGKGLEWVAEIYPPGGYTDYADSVKGRFTISADTSKNTAYLQMNSLRAEDTAVYYCAKARLFFDYWGQGTLVTVSS
VL: DIQMTQSPSSLSASVGDRVTITCRASQDVSTAVAWYQQKPGKAPKLLIYSASFLYSGVPSRFSGSGSGTDFTLTISSLQPEDFATYYCQQSYTTPPTFGQGTKVEIKR
notes: also called huYW353

What was measured:
[1] = target: T1, gD epitope-tagged mouse LgR5 expressed …; experiment: Scatchard analysis, competition of 125I-labeled with unlabeled antibody on 293 cells stably expressing mouse LgR5
Method: Scatchard analysis was performed following standard procedures (Holmes et al., Science 256:1205-1210 (1992)) to determine the relative binding affinities of YW353, ch8E11 and hu8E11v2 antibodies.
Anti-LgrS antibodies were [I¹²⁵] labeled using the indirect Iodogen method. […] Competition assay mixtures of 50 μL volume containing a fixed concentration of [I¹²⁵] labeled antibody and decreasing concentrations of serially diluted, unlabeled antibody were placed into 96-well plates. 293 cells stably expression human, rat, or mouse LgrS were cultured in growth media at 37° C. in 5% CO₂. Cells were detached from the flask using Sigma Cell Dissociation Solution and were washed with binding buffer, which consisted of Dulbecco's Modified Eagle Medium (DMEM) with 2% fetal bovine serum (FBS), 50 mM HEPES (pH 7.2) and 0.1% sodium azide. The washed cells were added to the 96 well plates at a density of 250,000 cells in 0.2 mL of binding buffer. The final concentration of the labeled antibody in each well was 200 μM. […] The filters were counted on a Wallac Wizard 1470 gamma counter (PerkinElmer Life and Analytical Sciences Inc.; Wellesley, Mass.). The binding data was evaluated using NewLigand software (Genentech), which uses the fitting algorithm of Munson and Robard to determine the binding affinity of the antibody (Munson and Robard 1980)

[2] = target: T1, gD epitope-tagged mouse LgR5 expressed …; experiment: FACS on stably transfected 293 cells, detected with R-Phycoerythrin goat anti-human antibody
Method: (§1) Monoclonal antibodies were tested to determine if they cross-react with LgR5 from species other than human. […] Residues that are identical among all four species are indicated by asterisks (*). […] YW353 antibody binds human and cynomolgus monkey LgR5, but not rat or mouse LgR5. Ch8E11 and hu8E11.v2 antibodies bind all four species of LgR5, although binding to rat LgR5 is not as strong as binding to human, cynomolgus monkey, or mouse LgR5. 2H6 antibody binds to human and mouse LgR5, and was not tested for binding to cynomolgus monkey or rat LgR5.

[3] = target: T2, gD epitope-tagged rat LgR5 expressed on …; experiment: as above
Method: as §1

| Binder | Kd [1] [pM] | binding result [2] | binding result [3] |
| --- | --- | --- | --- |
| B1 | 600 | – | – |
| B2 | – | no binding (tested: 10 µg/ml) | no binding (tested: 10 µg/ml) |
